The values that follow come from US9580512.

The target of this assay is CD55 (UniProt P08174). As to the kind of experiment: cell-based or functional assay.
UniProt P08174, sequence (P08174 35-353 limits assumed): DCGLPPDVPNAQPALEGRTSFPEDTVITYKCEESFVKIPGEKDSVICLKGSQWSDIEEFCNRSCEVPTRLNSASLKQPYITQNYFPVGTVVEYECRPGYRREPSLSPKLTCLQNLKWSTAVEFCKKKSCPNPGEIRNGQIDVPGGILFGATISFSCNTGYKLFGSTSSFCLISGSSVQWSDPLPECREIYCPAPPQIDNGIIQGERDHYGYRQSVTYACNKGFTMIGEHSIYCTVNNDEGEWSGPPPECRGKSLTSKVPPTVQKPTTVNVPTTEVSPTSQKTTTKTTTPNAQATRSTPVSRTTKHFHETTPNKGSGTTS

monoclonal antibody 791T/36 gave a C3b deposition on 791T cells, mean linear fluorescence (MLF) of 520 MLF and an increase in C3b deposition of 250%.

Consider BRIC 220 (antibody), for which the C3b deposition on 791T cells, mean linear fluorescence (MLF) turned out to be 200 MLF.

On to BRIC 216 (antibody), for which the C3b deposition on 791T cells, mean linear fluorescence (MLF) stood at 350 MLF.
